What was measured:
Conditions in all cases: remark: other sources report otherwise
[1] = molecular target: T1, Fas with the death domain, CFP and YFP fusions (human), P25445; assay: CFP dequenching after YFP photobleaching, fluorescence microscope
T1 chain: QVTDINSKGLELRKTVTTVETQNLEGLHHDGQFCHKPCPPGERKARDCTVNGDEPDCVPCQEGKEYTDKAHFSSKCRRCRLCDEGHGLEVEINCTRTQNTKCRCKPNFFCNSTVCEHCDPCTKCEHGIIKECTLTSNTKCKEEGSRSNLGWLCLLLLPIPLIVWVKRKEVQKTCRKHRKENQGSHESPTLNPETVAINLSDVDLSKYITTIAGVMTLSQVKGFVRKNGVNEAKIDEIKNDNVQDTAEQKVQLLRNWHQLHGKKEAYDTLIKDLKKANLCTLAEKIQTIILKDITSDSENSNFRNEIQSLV

[2] = molecular target: T2, Fas (endogenous, native receptor on T lymphoma cells), P25445; assay: DTSSP crosslinking of H9 lymphoma cells, anti-Fas Western blot of deglycosylated lysates
T2 chain: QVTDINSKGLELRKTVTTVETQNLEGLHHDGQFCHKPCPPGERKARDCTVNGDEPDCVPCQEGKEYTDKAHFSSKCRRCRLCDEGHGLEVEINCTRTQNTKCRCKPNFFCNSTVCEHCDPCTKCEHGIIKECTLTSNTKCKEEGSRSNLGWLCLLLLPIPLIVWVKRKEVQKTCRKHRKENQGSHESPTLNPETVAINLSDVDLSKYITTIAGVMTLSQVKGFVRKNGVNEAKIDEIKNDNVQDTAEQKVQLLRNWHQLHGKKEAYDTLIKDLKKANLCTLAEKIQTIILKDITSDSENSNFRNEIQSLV

[3] = molecular target: T3, p60 TNFR (endogenous), P19438; assay: DTSSP crosslinking of H9 cells with or without TNFα, non-reducing Western blot
T3 chain: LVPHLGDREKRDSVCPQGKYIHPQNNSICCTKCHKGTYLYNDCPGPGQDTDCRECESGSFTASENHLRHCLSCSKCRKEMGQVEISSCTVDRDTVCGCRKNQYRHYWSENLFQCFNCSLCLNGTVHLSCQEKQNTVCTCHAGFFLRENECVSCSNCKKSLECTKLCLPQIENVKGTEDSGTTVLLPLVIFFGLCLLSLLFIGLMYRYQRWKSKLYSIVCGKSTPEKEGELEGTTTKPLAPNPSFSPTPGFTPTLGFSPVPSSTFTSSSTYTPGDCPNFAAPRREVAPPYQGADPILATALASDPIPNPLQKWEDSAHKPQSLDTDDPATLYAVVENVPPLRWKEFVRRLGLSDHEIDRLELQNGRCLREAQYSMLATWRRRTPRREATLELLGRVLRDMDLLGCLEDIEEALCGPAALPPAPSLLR

B1: Fas with the death domain, CFP and YFP fusions, P25445 26-335 (receptor, human, UniProt P25445 26-335, looked up, not shown: large carriers)
chain: QVTDINSKGLELRKTVTTVETQNLEGLHHDGQFCHKPCPPGERKARDCTVNGDEPDCVPCQEGKEYTDKAHFSSKCRRCRLCDEGHGLEVEINCTRTQNTKCRCKPNFFCNSTVCEHCDPCTKCEHGIIKECTLTSNTKCKEEGSRSNLGWLCLLLLPIPLIVWVKRKEVQKTCRKHRKENQGSHESPTLNPETVAINLSDVDLSKYITTIAGVMTLSQVKGFVRKNGVNEAKIDEIKNDNVQDTAEQKVQLLRNWHQLHGKKEAYDTLIKDLKKANLCTLAEKIQTIILKDITSDSENSNFRNEIQSLV
FRET efficiency [1]: 27%

B2: Fas (endogenous, native receptor on T lymphoma cells), P25445 26-335 (receptor, UniProt P25445 26-335, looked up)
chain: QVTDINSKGLELRKTVTTVETQNLEGLHHDGQFCHKPCPPGERKARDCTVNGDEPDCVPCQEGKEYTDKAHFSSKCRRCRLCDEGHGLEVEINCTRTQNTKCRCKPNFFCNSTVCEHCDPCTKCEHGIIKECTLTSNTKCKEEGSRSNLGWLCLLLLPIPLIVWVKRKEVQKTCRKHRKENQGSHESPTLNPETVAINLSDVDLSKYITTIAGVMTLSQVKGFVRKNGVNEAKIDEIKNDNVQDTAEQKVQLLRNWHQLHGKKEAYDTLIKDLKKANLCTLAEKIQTIILKDITSDSENSNFRNEIQSLV
percent of chains cross-linked as trimers (densitometry) [2]: 60%

B3: p60 TNFR (endogenous), P19438 30-455 (receptor, UniProt P19438 30-455, looked up)
chain: LVPHLGDREKRDSVCPQGKYIHPQNNSICCTKCHKGTYLYNDCPGPGQDTDCRECESGSFTASENHLRHCLSCSKCRKEMGQVEISSCTVDRDTVCGCRKNQYRHYWSENLFQCFNCSLCLNGTVHLSCQEKQNTVCTCHAGFFLRENECVSCSNCKKSLECTKLCLPQIENVKGTEDSGTTVLLPLVIFFGLCLLSLLFIGLMYRYQRWKSKLYSIVCGKSTPEKEGELEGTTTKPLAPNPSFSPTPGFTPTLGFSPVPSSTFTSSSTYTPGDCPNFAAPRREVAPPYQGADPILATALASDPIPNPLQKWEDSAHKPQSLDTDDPATLYAVVENVPPLRWKEFVRRLGLSDHEIDRLELQNGRCLREAQYSMLATWRRRTPRREATLELLGRVLRDMDLLGCLEDIEEALCGPAALPPAPSLLR
percent of chains cross-linked as apparent trimers and higher order complexes [3]: 15 to 20%

From US20030108992A1
